In ChEMBL document CHEMBL4033784, “Discovery of 1,5-Diphenylpyrazole-3-Carboxamide Derivatives as Potent, Reversible, and Selective Monoacylglycerol Lipase (MAGL) Inhibitors” (J Med Chem, 2018) one finds Km data, which are given here for one protein.

Substrate in the data set: Cc1cccc(Cn2nc(C(=O)N3CCC(Cc4ccccc4)CC3)cc2-c2ccc(O)cc2)c1
Particulars: Homo sapiens.

Description: Competitive inhibition of recombinant human MAGL assessed as substrate Km using 4-NPA as substrate after 30 mins by Michaelis-Menten plot analysis

B1: Monoglyceride lipase (Homo sapiens), Q99685 (protein)
chain: MPEESSPRRTPQSIPYQDLPHLVNADGQYLFCRYWKPTGTPKALIFVSHGAGEHSGRYEELARMLMGLDLLVFAHDHVGHGQSEGERMVVSDFHVFVRDVLQHVDSMQKDYPGLPVFLLGHSMGGAIAILTAAERPGHFAGMVLISPLVLANPESATTFKVLAAKVLNLVLPNLSLGPIDSSVLSRNKTEVDIYNSDPLICRAGLKVCFGIQLLNAVSRVERALPKLTVPFLLLQGSADRLCDSKGAYLLMELAKSQDKTLKIYEGAYHVLHKELPEVTNSVFHEINMWVSQRTATAGTASPP
As a reminder, the Km is the concentration of substrate that gives half-maximal velocity. With B1, the Km came to 210 µM.
